Laboratory results from patent US20170349667A1 (ARGEN X B V, published 2017).
Blank lines part the entries; values can stand above or below the binder they belong to.

Legend:
[1] = biological target: T1, Decoy c-Met (extracellular domain of human c-Met) (human, Glycoprotein. In cells it is cleaved by furin after residue 307 into disulfide-linked alpha and beta parts; written here as one chain.); assay: binding ELISA, human c-Met (Decoy)
T1 construct: construct after Basilico et al. 2008; also called Decoy Met; monomeric Decoy Met
T1 chain: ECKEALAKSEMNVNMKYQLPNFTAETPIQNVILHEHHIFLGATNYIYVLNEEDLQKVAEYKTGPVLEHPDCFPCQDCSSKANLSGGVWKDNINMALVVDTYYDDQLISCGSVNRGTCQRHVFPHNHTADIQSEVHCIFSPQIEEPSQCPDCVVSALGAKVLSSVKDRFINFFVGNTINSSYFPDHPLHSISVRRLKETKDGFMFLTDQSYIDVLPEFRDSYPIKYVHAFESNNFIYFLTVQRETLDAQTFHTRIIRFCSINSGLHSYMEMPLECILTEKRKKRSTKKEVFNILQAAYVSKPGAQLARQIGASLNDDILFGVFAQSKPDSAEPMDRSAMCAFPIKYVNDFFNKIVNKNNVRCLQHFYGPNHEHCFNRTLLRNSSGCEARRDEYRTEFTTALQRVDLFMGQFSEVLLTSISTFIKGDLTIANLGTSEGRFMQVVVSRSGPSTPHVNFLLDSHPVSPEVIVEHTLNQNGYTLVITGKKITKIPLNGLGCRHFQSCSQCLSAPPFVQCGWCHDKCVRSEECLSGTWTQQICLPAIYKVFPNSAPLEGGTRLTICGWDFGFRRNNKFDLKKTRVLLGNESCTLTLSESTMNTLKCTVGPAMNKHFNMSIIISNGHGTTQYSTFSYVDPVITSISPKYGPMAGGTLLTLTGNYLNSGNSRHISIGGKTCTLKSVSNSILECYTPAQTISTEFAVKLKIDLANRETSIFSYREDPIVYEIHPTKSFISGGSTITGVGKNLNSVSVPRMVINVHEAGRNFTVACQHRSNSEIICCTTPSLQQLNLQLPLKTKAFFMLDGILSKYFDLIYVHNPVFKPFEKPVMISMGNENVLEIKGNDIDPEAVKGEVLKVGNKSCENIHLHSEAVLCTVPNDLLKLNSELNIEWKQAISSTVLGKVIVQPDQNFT

[2] = biological target: T2, recombinant dimeric c-Met (R&D systems, 358-MT/CF) (human, UniProt P08581 25-932); assay: competition ELISA: recombinant dimeric c-Met captured on the plate, mAb dilutions, then 25 ng/ml N-terminally biotinylated HGF as competitor, strep-HRP, 620 nm; % competition against the controls
T2 construct: bought protein; also called recombinant c-Met; Fc-Met; not shown: C-terminal Fc portion (captured with anti-human Fc) and a His tag (captured with anti-His)
Method: Competition with N-terminally biotinylated HGF for binding to immobilized c-Met was performed using an ELISA-based competition assay. Five μg/ml mouse anti-His antibodies (Serotech) was immobilized on a maxisorb plate and, after blocking with 1% casein in PBS for 2 h, 100 ng/ml recombinant dimeric c-Met was added and incubated for 1 h at room temperature. After washing, dilutions of the antibodies were added and allowed to bind to the captured c-Met for 30 minutes, before 25 ng/ml N-terminally biotinylated HGF (R&D systems, 294-HGN/CF) was added. Biotinylated HGF was incubated at room temperature for 1 h before washing. Horseradish-conjugated streptavidin (strep-HRP) was added and incubated for an additional hour. TMB was added and the plate read at 620 nm. An isotype control (hIgG1λ) was included as a control as well as murine 5D5 antibody. Competition was expressed as percentage competition as compared to the controls (strep-HRP only or hIgG1λ) and plotted against the concentration of antibodies. An IC₅₀ was calculated using GraphPad Prism (Table 10). Antibodies 13E6 and 20A11 only displaced HGF partially (about 50%), which may be related to the epitope these two mAbs recognize on the c-Met.

[3] = biological target: human c-Met on cells (MKN-45, A549, HPAF, BxPC3) (human, UniProt P08581 25-1390); assay: cell-based or functional assay
[4] = biological target: T3, HMet (human c-Met, control of Table 18) (human); assay: ELISA, mAb coated at 2 µg/ml, c-Met added, streptavidin-HRP
T3 chain: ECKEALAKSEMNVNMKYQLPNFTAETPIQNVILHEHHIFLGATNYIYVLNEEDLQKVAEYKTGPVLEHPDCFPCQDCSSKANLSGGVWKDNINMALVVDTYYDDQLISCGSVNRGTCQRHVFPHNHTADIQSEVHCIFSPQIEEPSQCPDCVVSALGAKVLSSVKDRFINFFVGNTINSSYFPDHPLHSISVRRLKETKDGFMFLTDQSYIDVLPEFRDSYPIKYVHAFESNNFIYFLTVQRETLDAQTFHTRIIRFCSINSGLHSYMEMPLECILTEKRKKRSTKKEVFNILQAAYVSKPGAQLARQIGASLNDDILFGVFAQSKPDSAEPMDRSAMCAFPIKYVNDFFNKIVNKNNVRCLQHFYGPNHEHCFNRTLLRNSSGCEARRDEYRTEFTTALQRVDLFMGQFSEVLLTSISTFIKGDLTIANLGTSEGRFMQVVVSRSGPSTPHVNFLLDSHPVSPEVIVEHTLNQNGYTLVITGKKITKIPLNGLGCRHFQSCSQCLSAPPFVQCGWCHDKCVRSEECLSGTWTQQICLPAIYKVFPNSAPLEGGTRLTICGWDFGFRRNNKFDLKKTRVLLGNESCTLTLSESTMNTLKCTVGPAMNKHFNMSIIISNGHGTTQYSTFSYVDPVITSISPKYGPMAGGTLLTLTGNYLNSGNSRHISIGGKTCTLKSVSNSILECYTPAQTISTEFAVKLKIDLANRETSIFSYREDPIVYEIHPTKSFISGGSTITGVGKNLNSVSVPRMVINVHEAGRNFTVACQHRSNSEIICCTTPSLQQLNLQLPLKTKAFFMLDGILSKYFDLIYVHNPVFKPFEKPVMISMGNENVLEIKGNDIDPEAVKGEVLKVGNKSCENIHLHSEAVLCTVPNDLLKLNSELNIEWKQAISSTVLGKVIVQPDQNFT
Excerpt: (§1) An ELISA was run to investigate the binding of the mAbs to the different chimeras.

[5] = biological target: T4, llama-human c-Met chimera L110 (aa608-909) (human; Llama glama); assay: ELISA, mAb coated at 2 µg/ml, chimera added, streptavidin-HRP
T4 construct: label probably LI10
Excerpt: as §1

[6] = biological target: T5, llama-human c-Met chimera L18 (aa540-909) (human; Llama glama); assay: as above
T5 construct: label probably LI8
Excerpt: as §1

[7] = biological target: llama-human c-Met chimera LS1 (aa1-98) (Llama glama; human); assay: as above
Excerpt: as §1

[8] = biological target: T6, llama-human c-Met chimera L111 (aa634-909) (human; Llama glama); assay: as above
T6 construct: label probably LI11
Excerpt: as §1

[9] = biological target: llama-human c-Met chimera LP7*(aa523-909), T737I (human; Llama glama); assay: as above
Excerpt: as §1

[10] = biological target: llama-human c-Met chimera LP6 (aa497-909) (human; Llama glama); assay: as above
Excerpt: as §1

[11] = biological target: T7, llama-human c-Met chimera L19 (aa572-909) (human; Llama glama); assay: as above
T7 construct: label probably LI9
Excerpt: as §1

[12] = biological target: T8, human c-Met ECD (aa 25-932) with His tag (human, Glycoprotein. Furin cleavage after residue 307 gives disulfide-linked alpha and beta parts; written here as one chain.); assay: ELISA: 200 ng of recombinant c-Met ECD protein coated, mAb 1 h, HRP goat anti-human antibody, TMB, OD 620 nm
T8 construct: also called human c-Met (WT)
T8 chain: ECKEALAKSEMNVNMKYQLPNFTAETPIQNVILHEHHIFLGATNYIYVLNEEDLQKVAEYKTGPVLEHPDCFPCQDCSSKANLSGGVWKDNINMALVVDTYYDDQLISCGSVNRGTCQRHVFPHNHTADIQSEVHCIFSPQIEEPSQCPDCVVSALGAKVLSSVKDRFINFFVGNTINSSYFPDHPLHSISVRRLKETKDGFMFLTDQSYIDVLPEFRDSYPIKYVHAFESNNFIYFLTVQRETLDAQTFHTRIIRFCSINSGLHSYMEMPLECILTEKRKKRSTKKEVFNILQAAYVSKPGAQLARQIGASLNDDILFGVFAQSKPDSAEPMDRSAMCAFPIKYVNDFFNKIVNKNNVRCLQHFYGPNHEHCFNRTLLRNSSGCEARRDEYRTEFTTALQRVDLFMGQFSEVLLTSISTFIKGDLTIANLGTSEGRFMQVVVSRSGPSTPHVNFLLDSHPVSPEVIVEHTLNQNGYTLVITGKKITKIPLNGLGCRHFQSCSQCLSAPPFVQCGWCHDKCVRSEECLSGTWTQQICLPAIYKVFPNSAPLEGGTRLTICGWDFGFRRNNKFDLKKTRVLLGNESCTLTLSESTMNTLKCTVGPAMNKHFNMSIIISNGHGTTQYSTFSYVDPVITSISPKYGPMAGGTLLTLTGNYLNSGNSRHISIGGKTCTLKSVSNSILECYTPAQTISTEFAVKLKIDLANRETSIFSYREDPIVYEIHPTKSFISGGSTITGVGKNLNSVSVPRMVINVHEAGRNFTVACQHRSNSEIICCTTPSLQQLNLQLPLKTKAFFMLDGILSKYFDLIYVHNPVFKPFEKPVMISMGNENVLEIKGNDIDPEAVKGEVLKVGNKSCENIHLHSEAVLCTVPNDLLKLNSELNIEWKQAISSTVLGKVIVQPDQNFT
Method: 200 ng of the different chimeric recombinant cMet proteins were immobilized on maxisorb plates overnight at 4° C. After washing with PBS, the plates were blocked with 0.1% casein for 2 h at RT, before the mAbs were added and allowed to bind to the c-Met for 1 h at RT. After washing, HRP-conjugated goat anti-human antibody (diluted 1/5000, Jackson Labs) was added and incubated for 1 h at RT before additional washing and addition of TMB. The optical density at 620 nm was read and the values were represented in a graph against the concentration of mAbs.

B1: 12G4 mAb (antibody, human IgG1, V domains shown)
VH: QLQLVESGGGMAQPGGSLKLSCAASGFTFDDYAMTWVRQAPGKGLEWLSTISWNDINTYYAESMKDRFTISRDNAKNTLYLQMNSLESEDTAVYYCAKRRDNYYGTSGEYDYWGQGTQVTVSS
VL: QSALTQPPSVSGTLGKTVTISCAGTSSDIGNYNYVSWYQQLPGTAPKLLIYEVNKRPSGIPDRFSGSKSGNTASLSISGLQSEDEADYYCASYRSSNNVVFGGGTKLTVL
notes: llama VH/V lambda fused to human IgG1 constant domains and human C lambda
EC50 [1]: 0.42 nM

B2: 20A11 mAb (antibody, human IgG1, V domains shown)
VH: QVQLVESGGGLVQPGGSLRLSCAASGFTFDDYAMSWVRQAPGKGLEWVSAISWNGSSTYYAESMKGRFTISRDNAKNTLYLQMNSLKSEDTAVYYCAKDLIGSHDYWGQGTQVTVSS
VL: QAVLTQPPSVSGTLGKTLTISCAGTSSDVGYGNYVSWYQQLPGTAPKLLIYAVSTRASGIPDRFSGSKSGNTASLTISGLQSEDEADYYCASYRSSNNYAFGAGTKLTVL
notes: human IgG1 constant domains and human C lambda
EC50 [1]: 4.3 nM

Continued, values first:

IC50 (read off the curve) [2]: ~0.7 nM
B3: murine 5D5 antibody (antibody, V domains shown)
VH: QVQLQQSGPELVRPGASVKMSCRASGYTFTSYWLHWVKQRPGQGLEWIGMIDPSNSDTRFNPNFKDKATLNVDRSSNTAYMLLSSLTSADSAVYYCATYGSYVSPLDYWGQGTSVTVSS
VL: DIMMSQSPSSLTVSVGEKVTVSCKSSQSLLYTSSQKNYLAWYQQKPGQSPKLLIYWASTRESGVPDRFTGSGSGTDFTLTITSVKADDLAVYYCQQYYAYPWTFGGGTKLEIK

antibody-induced proliferation of BxPC3 cells (agonism) [3]: < 20 % of the proliferation obtained with 75 ng/ml HGF
EC50 [4]: 0.06 µg/mL
EC50 [5]: 0.047 µg/mL
EC50 [6]: 0.047 µg/mL
EC50 [7]: 0.068 µg/mL
EC50 [8]: 0.045 µg/mL
EC50 [9]: 0.055 µg/mL
EC50 [10]: 0.05 µg/mL
EC50 [11]: 0.047 µg/mL
EC50 (read off the curve) [12]: ~0.6 nM
EC50 [1]: 0.13 nM
B4: 36C4 mAb (antibody, human IgG1, V domains shown)
VH: QVQLVESGPGLVKPSQTLSLTCAVSGGSITTNYYYWSWIRQSPGKGLEWMGVIAYDGSTDYSPSLKSRTSISRDTSKNQFSLQLSSVTPEDTAVYYCARDVRVIATGWATANALDAWGQGTLVTVSS
VL: QSVLTQPPSVSGSPGKTVTISCAGTSSDVGYGNYVSWYQQLPGTAPKLLIFAVSYRASGIPDRFSGSKSGNTAFLTISGLQSEDEADYYCASYRSSNNAAVFGGGTHLTVL
notes: as for B2
